Laboratory results reported in patent US20060287509A1 (University of California, published 2006).
Changes are numbered by the printed parent chain.

Tests used:
[1] = target: c-erbB-2 ECD with a Ser-Gly-His6 C-terminal fusion (UniProt P04626); test: from SPR (BIAcore) Kd values
[2] = target: c-erbB-2 ECD with a Ser-Gly-His6 C-terminal fusion (UniProt P04626); test: SPR (BIAcore)
[3] = target: T1, c-erbB-2 expressed on cells (SK-OV-3, SK-BR-3) (UniProt P04626 23-1255, limits assumed); test: Scatchard after radioiodination, SK-OV-3 cells
T1 construct: whole, on cells; also called native c-erbB-2 expressed on cells

[4] = target: T2, c-erbB-2 ECD with a Ser-Gly-His6 C-terminal fusion (UniProt P04626 23-652); test: competition ELISA: sFv preincubated with soluble ECD (0-100 nM), free sFv read on immobilized ECD
T2 construct: extracellular domain; expressed from CHO cells, IMAC purified; coupled to a CM5 chip, adsorbed to polystyrene, or biotinylated and captured on avidin; also called c-erbB-2 extracellular domain; biotinylated c-erbB-2 ECD

[5] = target: T2, c-erbB-2 ECD with a Ser-Gly-His6 …; test: SPR (BIAcore)
[6] = target: T1, c-erbB-2 expressed on cells (SK-OV-3, …); test: FACS, biotinylated sFv on SK-OV-3 cells
[7] = target: T2, c-erbB-2 ECD with a Ser-Gly-His6 …; test: SPR (BIAcore); remark: listed apart in the source
[8] = target: T2, c-erbB-2 ECD with a Ser-Gly-His6 …; test: from SPR (BIAcore) Kd values
[9] = target: T2, c-erbB-2 ECD with a Ser-Gly-His6 …; test: SPR (BIAcore); clone eluted with 1 µM c-erbB-2 ECD

B1: C6-B1L1 (scFv, part only; not given: linker and VL, part only)
scFv, part: QVQLLQSGAELKKPGSLKISCKGSGYSFTSWIAWVRQMPGKGLEYGLIYPGDSDTKYSPSQGQVTISVDKSVSTALQWSSLKPSDSAVYFARHDVGYCHDVGYCTDRTCAKWPYFQHTVS
- ΔΔGI [1]: 1.8 kJ/mol
- Kd [2]: 0.63 nM
- Kd (C6.5)/Kd (mut) [2]: 25
- Kd (parent)/Kd (mut) [2]: 0.19
- koff [2]: 0.00024 s⁻¹
- kon [2]: 380000 M⁻¹ s⁻¹

B2: C6-B47L1 (scFv, part only; not given: linker and VL, part only)
scFv, part: B1 scFv, part with T108S
- ΔΔGI [1]: 1.88 kJ/mol
- Kd [2]: 0.6 nM
- Kd (C6.5)/Kd (mut) [2]: 27
- Kd (parent)/Kd (mut) [2]: 0.18
- koff [2]: 0.00018 s⁻¹
- kon [2]: 300000 M⁻¹ s⁻¹

B3: C6VLD (scFv)
chain: QVQLLQSGAELKKPGESLKISCKGSGYSFTSYWIAWVRQMPGKGLEYMGLIYPGDSDTKYSPSFQGQVTISVDKSVSTAYLQWSSLKPSDSAVYFCARHDVGYCSSSNCAKWPEYFQHWGQGTLVTVSSGGGGSGGGGSGGGGSQSVLTQPPSVSAAPGQKVTISCSGTNSNIGNNYVSWYQQLPGTAPKLLIYTNDQRPSGVPDRFSGSKSGTSASLAISGLQSEDEADYYCAAWDDSLNGWMFGGGTKLTVLG
- Kd [3]: 26 nM
- IC50 [4]: 5.8 nM

B4: C6VLE (scFv)
chain: QVQLLQSGAELKKPGESLKISCKGSGYSFTSYWIAWVRQMPGKGLEYMGLIYPGDSDTKYSPSFQGQVTISVDKSVSTAYLQWSSLKPSDSAVYFCARHDVGYCSSSNCAKWPEYFQHWGQGTLVTVSSGGGGSGGGGSGGGGSQSVLTQPPSVSAAAGQKVTISCSGSSSSIGRNYVSWNQQLPGTAPKLLIWRNNQRPSGVPDRFSGSKSGTSASLAISGVRSEDEADYYCASWDNSLSGWVFGGGTKLTVLG
- Kd [3]: 71 nM
- IC50 [4]: 2.8 nM

B5: C6VLF (scFv)
chain: QVQLLQSGAELKKPGESLKISCKGSGYSFTSYWIAWVRQMPGKGLEYMGLIYPGDSDTKYSPSFQGQVTISVDKSVSTAYLQWSSLKPSDSAVYFCARHDVGYCSSSNCAKWPEYFQHWGQGTLVTVSSGGGGSGGGGSGGGGSQSVLTQPPSMSAAPGQKVTISCSGSSSNIGNNYVSWYQQFPGTAPKLLIHDNNKRPSGIPDRISGSKSGTSASLAISGLQSDDEADYYCAAWDDSLNGWVFGGGTKLTVLG
- Kd [3]: 79 nM
- IC50 [4]: 7.5 nM

B6: C6ML3-9 (scFv)
scFv: QVQLLQSGAELKKPGESLKISCKGSGYSFTSYWIAWVRQMPGKGLEYMGLIYPGDSDTKYSPSFQGQVTISVDKSVSTAYLQWSSLKPSDSAVYFCARHDVGYCSSSNCAKWPEYFQHWGQGTLVTVSSGGGGSGGGGSGGGGSQSVLTQPPSVSAAPGQKVTISCSGSSSNIGNNYVSWYQQLPGTAPKLLIYGHTNRPAGVPDRFSGSKSGTSASLAISGFRSEDEADYYCASWDYTLSGWVFGGGTKLTVLG
notes: C6.5 with this VL CDR3; C-terminal myc and His6 tags; parent of the VH CDR3 libraries; also called C6ML3-9 (wt); wt C6ML3-9
- kon [5]: 610000 M⁻¹ s⁻¹
- half life (t1/2) on the cell surface [6]: 11 min
- fold increase in affinity vs wild-type sFv (C6.5) [7]: 16 fold

B7: C6-B47D6 (scFv)
scFv: B6 scFv with S105T, S106D, S107R, N108S, Y115W, F116M, Q117Y, H118P
notes: C6MH3-B47 with the library D residues of C6MH3-D6
- ΔΔGI [8]: 0.711 kJ/mol

B8: C6MH3-B1 (scFv)
scFv: B6 scFv with S105T, S106D, S107R, N108T
notes: C6ML3-9 with this VH CDR3; C-terminal His6; also called C6MNH3-B1
- half life (t1/2) on the cell surface [6]: 102 min

B9: C6ML3-5 (scFv)
scFv: B6 scFv with S235A, T239S
notes: C6.5 with this VL CDR3; C-terminal myc and His6 tags
- koff [9]: 0.0019 s⁻¹
- kon [5]: 590000 M⁻¹ s⁻¹

B10: C6ML3-7 (scFv)
scFv: B6 scFv with S235A, T239A, L240V
notes: as for B9
- kon [5]: 650000 M⁻¹ s⁻¹
- fold increase in affinity vs wild-type sFv (C6.5) [7]: 6 fold

B11: C6-9L1 (scFv)
chain: B6 scFv with A156G, K161W, G195D, H196N, T197N, N198K, A201S, K211Q, F223L
- ΔΔGI [8]: 1.76 kJ/mol

B12: C6-12L1 (scFv)
chain: QVQLLQSGAELKKPGESLKISCKGSGYSFTSYWIAWVRQMPGKGLEYMGLIYPGDSDTKYSPSFQGQVTISVDKSVSTAYLQWSSLKPSDSAVYFCARHDVGYCSSSNCAKWPEYFQHWGQGTLVTVSSGGGGSGGGGSGGGGSQSVLTQPPSVSGAPGQWVTISCSGSSSNIGNNYVSWYQQLPGTAPKLLIYDNNKRPSGVPDRFSGSQSGTSASLAISGLRSEDEADYYCAAWDYSRSGWVFGGGTKLTVLG
- ΔΔGI [8]: -0.753 kJ/mol

B13: C6-B1D1 (scFv)
chain: B6 scFv with S105T, S106D, S107R, N108T, Y115W, F116L, Q117H, H118V
- ΔΔGI [8]: -2.55 kJ/mol

B14: C6-B1D2 (scFv)
chain: B6 scFv with S105T, S106D, S107R, N108T, Y115W, F116L, Q117G, H118V
- ΔΔGI [8]: -0.293 kJ/mol

B15: C6-B1D3 (scFv)
chain: B6 scFv with S105T, S106D, S107R, N108T, Y115W, F116L, Q117D, H118N
- ΔΔGI [8]: -2.22 kJ/mol
- fold lower Kd than wt C6.5 [7]: 1230 fold

B16: C6-B1D5 (scFv)
chain: B6 scFv with S105T, S106D, S107R, N108T, Y115W, F116M, H118M
- ΔΔGI [8]: -1.67 kJ/mol
